Kd data for one substance are collected here from patent US20190055316A1.

Assay [1] has as its target Native hu MSLN (cells) (UniProt Q13421). Nature of the assay: KinExA.
For assay [2], the target named is Soluble human MSLN (UniProt Q13421). Nature of the assay: Biacore.
Assay [3] shares this target. Nature of the assay: Biacore; published value.

Chain of Soluble human MSLN (Q13421 296-606): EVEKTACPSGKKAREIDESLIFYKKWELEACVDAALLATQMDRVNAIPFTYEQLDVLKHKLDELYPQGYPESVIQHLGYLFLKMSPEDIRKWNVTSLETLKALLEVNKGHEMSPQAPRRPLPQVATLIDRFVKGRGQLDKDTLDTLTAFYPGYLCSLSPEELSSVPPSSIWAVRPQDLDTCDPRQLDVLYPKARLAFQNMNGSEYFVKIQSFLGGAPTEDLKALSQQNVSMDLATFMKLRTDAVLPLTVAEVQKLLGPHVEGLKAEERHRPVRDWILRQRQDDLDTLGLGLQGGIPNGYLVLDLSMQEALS
Chain of Native hu MSLN (cells) (Q13421 296-606): as above

As for Morab-009 (ssI CDRs), the Kd in assay [1] came to 2.2 pM; in assay [2], 160 pM; in assay [3] it was 1500 pM.
